Measurements as given in publication PMC6087429 (Structure(London, England:1993), 2018).

Biological target: NDR1 MBD and kinase domain (NDR1^MBD-KD, residues 12-418), wild type (human, UniProt Q15208 12-418)
Assay: HDX-MS

Sequence of NDR1 MBD and kinase domain (NDR1^MBD-KD, residues 12-418), wild type (Q15208 12-418): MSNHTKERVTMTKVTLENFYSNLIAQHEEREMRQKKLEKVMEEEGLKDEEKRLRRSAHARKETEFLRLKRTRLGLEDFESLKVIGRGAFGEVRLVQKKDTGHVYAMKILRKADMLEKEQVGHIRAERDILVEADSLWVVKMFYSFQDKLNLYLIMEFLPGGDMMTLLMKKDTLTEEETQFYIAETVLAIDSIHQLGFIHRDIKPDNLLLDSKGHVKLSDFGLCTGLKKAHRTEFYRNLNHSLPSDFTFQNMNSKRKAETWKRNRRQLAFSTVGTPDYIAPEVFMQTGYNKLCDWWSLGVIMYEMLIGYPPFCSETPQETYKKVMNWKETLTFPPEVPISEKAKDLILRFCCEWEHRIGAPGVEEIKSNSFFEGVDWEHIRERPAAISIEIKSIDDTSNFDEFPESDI

B1: MOB1A (amino acids 2-216), recombinant (natural protein, human, UniProt Q9H8S9 2-216, looked up)
chain: SFLFSSRSSKTFKPKKNIPEGSHQYELLKHAEATLGSGNLRQAVMLPEGEDLNEWIAVNTVDFFNQINMLYGTITEFCTEASCPVMSAGPRYEYHWADGTNIKKPIKCSAPKYIDYLMTWVQDQLDDETLFPSKIGVPFPKNFMSVAKTILKRLFRVYAHIYHQHFDSVMQLQEEAHLNTSFKHFIFFVQEFNLIDRRELAPLQELIEKLGSKDR
binding result: binds
